Where two headings read alike, the source gives them in different places. Bounds are passed on as bounds.

In test [1] the target is T1, recombinant human GH (Pharmaceutical and Medical Device Regulatory Science Society of Japan) (human, UniProt P01241 27-217).
T1 construct: also called human growth hormone; GH-22K
The test is described as follows: GH-GHR binding inhibition ELISA: biotin-labeled GH (5.5 ng/mL) on captured GHR-hFc, antibody varied. On the procedure: The GH-GHR binding inhibitory activity was measured by calculating the inhibition rate of binding signal of biotin-labeled GH to GHR extracellular region protein-human Fc fusion (GHR-hFc) which was immobilized on an ELISA plate via anti-human Fcγ mouse antibody. The biotin-labeled GH was prepared by labeling recombinant GH with EZ-Link Micro NHS-PEG4-Biotinylation kit (Thermo Fisher Scientific Inc.). The specific method is as follows. Anti-human Fcγ mouse antibody (Jackson ImmunoResearch Laboratories, Inc.) diluted to 1 μg/mL PBS was immobilized at 50 μL/well on a 96-well half-area immunoplate, and the plate was blocked with PBS comprising 1% BSA. Next, GHR-hFc (R&D Systems, Inc.) diluted with assay buffer (PBS comprising 0.2% BSA and 0.05% Tween 20) to 0.1 μg/mL was added at 50 μL/well to be captured on the plate. The plate was washed with washing buffer (PBS comprising 0.05% Tween 20), followed by mixing the equivalent amount of biotin-labeled GH diluted with assay buffer to final concentration of 5.5 ng/mL and a sample (anti-GH mouse mAb-comprising sample) diluted with assay buffer, and adding the resultant mixture at 50 μL/well, and the plate was left still at room temperature for 2 hours. […] The reaction was stopped by adding an aqueous solution of 0.5 mol/L H₂SO₄, and then the absorbance at 450 nm was measured with a plate reader.
In general terms: In an ELISA, binding on a coated surface is turned into a signal by an enzyme label.

The target in test [2] is T1, recombinant human GH (Pharmaceutical …). The test is described as follows: cell-based or functional assay.
For test [3] the target is unchanged. The test is described as follows: cell-based or functional assay. The source holds these as a separate data set.
The target in test [4] is T2, placental lactogen (PL) (Protein Laboratories Rehovot Ltd.) (human, UniProt P0DML2 27-217).
T2 construct: also called human placental lactogen; GH-analogous protein
T2 sequence (P0DML2 27-217 limits assumed): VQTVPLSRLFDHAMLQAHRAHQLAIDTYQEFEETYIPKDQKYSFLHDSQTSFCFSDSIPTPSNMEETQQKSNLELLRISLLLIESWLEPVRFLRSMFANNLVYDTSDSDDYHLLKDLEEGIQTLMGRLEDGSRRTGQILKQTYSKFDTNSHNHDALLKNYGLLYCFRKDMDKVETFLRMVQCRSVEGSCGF
The test is described as follows: competitive ELISA on immobilised human GH; IC50 (human GH)/IC50 (PL) x 100. The procedure: (§1) IC₅₀ (nmol/L) for each of the anti-GH antibodies was determined by concentration-dependent curves of human GH and GH-analogous protein. The cross-reactivity to the GH-analogous protein was calculated by the following formula 3.

For test [5], the target named is T1, recombinant human GH (Pharmaceutical …). The test is described as follows: SPR (BIACORE 8K+), antibody captured by anti-human IgG (Fc) on CM5 chip, GH as analyte. The procedure: (§2) The binding properties of the recombinant anti-GH humanized antibody (Hu-13H02) and the Fc mutant thereof (Hu-13H02m) prepared in Example 11, and the chimeric antibody (Ch-13H02) prepared in Example 8 to the human GH (Pharmaceutical and Medical Device Regulatory Science Society of Japan) and the monkey GH (Example 3) were measured with SPR using BIACORE 8K+ (GE Healthcare Inc.). The antibody samples (1 μg/mL) of the three antibodies (Hu-13H02, Hu-13H02m, and Ch-13H02) were captured by anti-human IgG (Fc) antibody immobilized on a CM5 sensor chip, respectively. Next, the human GH ranging from 0.13 to 8.0 nmol/L, or the monkey GH ranging from 0.50 to 32 nmol/L was added to calculate binding and dissociation parameters.

Test [6] addresses recombinant cynomolgus monkey GH (cynomolgus monkey). The description is as above. On the procedure:
as §2

Test [7] deals with T1, recombinant human GH (Pharmaceutical …). The test is described as follows: cell-based or functional assay. This is another data set of the same source.
The target in test [8] is recombinant cynomolgus monkey GH (cynomolgus monkey). The test is described as follows: cell-based or functional assay.
Chain of recombinant cynomolgus monkey GH (cynomolgus monkey) (P33093 27-217): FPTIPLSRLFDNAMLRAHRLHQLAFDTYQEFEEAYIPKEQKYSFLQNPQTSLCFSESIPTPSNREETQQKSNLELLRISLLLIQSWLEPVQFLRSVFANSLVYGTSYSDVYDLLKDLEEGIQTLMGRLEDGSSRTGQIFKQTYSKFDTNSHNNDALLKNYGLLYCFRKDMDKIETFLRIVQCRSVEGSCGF
Test [9] deals with T3, prolactin (PRL) (BBT Boster Immunoleader) (human, UniProt P01236 29-227).
T3 construct: also called human prolactin; GH-analogous protein
T3 sequence (looked up): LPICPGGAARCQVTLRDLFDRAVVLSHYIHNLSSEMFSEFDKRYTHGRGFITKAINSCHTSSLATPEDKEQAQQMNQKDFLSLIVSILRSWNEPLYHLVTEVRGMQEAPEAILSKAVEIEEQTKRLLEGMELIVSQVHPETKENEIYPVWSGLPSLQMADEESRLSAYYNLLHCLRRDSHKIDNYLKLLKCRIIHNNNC
The test is described as follows: competitive ELISA on immobilised human GH; IC50 (human GH)/IC50 (PRL) x 100. The procedure:
as §1

T1 sequence (P01241 27-217 limits assumed): as the sequence (P33093 27-217) above, with T105A, Y107D, D109N, S133P, N153D, I173V counted along it

B1: anti-GH mouse mAb 13H02 (antibody, mouse IgG2a, V domains shown)
VH: QGQMQQSGGELVNPGSSVKMSCKTSGFTFTSSEISWLKQKPGQSLEWIAWIYPGTGSSKFNQKFTGKAQLTAETSSSTAYMQLSSLTSEDSAIYYCARRGFFGGSFDYWGQGTTLTISS
VL: QIVLAQSPAIMSASLGERVTMTCTATSSVSSSYLHWYQQKPGSSPKLWIYSTSNLASGVPARFSGSGSGTSYSLTISSMEAEDAATYYCHQYHHSPPTFGAGTKLELK
notes: also called parent mouse antibody (13H02)
With B1, the IC50 in [1] is 0.0653 nM. For the same molecule, the “GH-dependent Nb2 cell proliferation inhibitory activity (IC50)” value in [2] worked out at 3.36 pmol/L.

B2: recombinant anti-GH mouse-human chimeric mAb (Ch-13H02) (antibody, human IgG1, V domains shown)
VH: B1 VH
VL: B1 VL
notes: also called Ch-13H2; anti-GH chimeric antibody
For the molecule B2, in test [3], the “GH-dependent Nb2 cell proliferation inhibitory activity (IC50)” value was found to be 6.27 pmol/L. The cross-reactivity in test [4] and in test [9] was < 1% in each case. Also, the equilibrium dissociation constant (Kd) in test [5] worked out at 0.012 nM; in test [6] it was 0.074 nM. Besides, the figures for the koff in test [5] and in test [6] were 2.4e-05 s⁻¹ and 3.4e-05 s⁻¹, respectively. Also, the values for the on-rate constant (kon) in test [5] and in test [6] were 1.9e+06 M⁻¹ s⁻¹ and 450000 M⁻¹ s⁻¹, respectively. In addition, the “Neutralizing activity in GH-dependent Nb2 cell proliferation inhibition assay (IC50)” value is 2.65 pmol/L in [7] and 13.6 pmol/L in [8].

B3: recombinant anti-GH humanized antibody (Hu-13H02) (antibody, human IgG1, V domains shown)
VH: QVQMVQSGAEVKKPGASVKVSCKASGFTFTSSEISWLRQAPGQRLEWIAWIYPGTGSSKFNQKFTGKATLTADTSASTAYMELSSLRSEDTAVYYCARRGFFGGSFDYWGQGTTVTVSS
VL: DIQLTQSPSFLSASVGDRVTITCTATSSVSSSYLHWYQQKPGKAPKLWIYSTSNLASGVPSRFSGSGSGTEFTLTISSLQPEDFATYYCHQYHHSPPTFGGGTKVEIK
notes: also called humanized 13H02
With B3, in test [4], the cross-reactivity is < 1%. In test [6], the Kd came out at 0.13 nM, the koff is 6.2e-05 s⁻¹ and the on-rate constant (kon) stood at 470000 M⁻¹ s⁻¹. The “Neutralizing activity in GH-dependent Nb2 cell proliferation inhibition assay (IC50)” value in test [8] turned out to be 48 pmol/L. Besides, in [9], the cross-reactivity was < 1%.

B4: anti-GH humanized antibody Fc mutant (Hu-13H02m) (antibody, human IgG1, kappa, V domains shown)
VH: B3 VH
VL: DIQLTQSPSFLSASVGDRVTITCTATSSVSSSYLHWYQQKPGKAPKLWIYSTSNLASGVPSRFSGSGSGTEFTLTISSLQPEDFATYYCHQYHHSPPTFGGGTKVEIKR
notes: also called Fc variant of Hu-13H02
In the case of B4, the cross-reactivity in test [4] was < 1%. In addition, in test [6], the Kd stood at 0.13 nM, the dissociation rate constant (koff) worked out at 6.9e-05 s⁻¹ and the kon is 520000 M⁻¹ s⁻¹. Also, the “Neutralizing activity in GH-dependent Nb2 cell proliferation inhibition assay (IC50)” value in [8] turned out to be 30.1 pmol/L. Besides, the cross-reactivity in test [9] is < 1%.

What is called IC50 is the midpoint of a concentration-inhibition curve. Usually Kd stands for a measure of binding affinity in units of concentration. The koff is the first-order rate constant of dissociation. Broadly, the kon is a measure of how fast the partners come together.

(Values after patent publication US20240391996A1 (TAISHO PHARMACEUTICAL, published 2024).)
